Experimental data reported in PMC2971551.

Molecular target: truncated neck domain fragment of DC-SIGNR (neck lacking the N-terminal non-repeat region and the first half of the first repeat unit) (human)
Assay: SEC; gel filtration of the purified truncated fragment; profile superimposed on that of the previously described DC-SIGN extracellular domain

stoichiometry N: 4
Substance: truncated neck domain fragment of DC-SIGNR (neck lacking the N-terminal non-repeat region and the first half of the first repeat unit) (domain or fragment)
